The target in this experiment is FPM13 (Francisella Periplasmic Metalloprotein, 13 kDa), native protein of Francisella novicida (Francisella novicida). The experiment can be described thus: cryo-EM structure.

Broadly, the stoichiometry N is the number of molecules, sites or subunits per partner or assembly. For the substance “FPM13 (Francisella Periplasmic Metalloprotein, 13 kDa), native protein of Francisella novicida (natural protein)”, the stoichiometry N is 18.

The values above are taken from article PMC13028475.
